Data from US20260115256A1 (HANGZHOU SCIWIND BIOSCIENCES, published 2026).
*1 amine or outer side, *2 acyl side, *3 side chain or, on linkers, in order; H or OH if unused. Bridges are numbered along the chain shown (N, C = ends). Primed or numbered codes have the meaning given here. Where no end group is shown, it is not given here. Side-chain parts run from the residue outwards. [ ]: non-standard residue; d: D form. The star is where a group is joined. C20 diacid = O=C(O)CCCCCCCCCCCCCCCCCCC(=O)*; γGlu = O=C(O)[C@H](CCC(=O)[*:2])N[*:1]; βAsp = O=C(O)[C@H](CC(=O)[*:2])N[*:1]; Hyp = O=C(O)[C@@H]1C[C@@H](O)CN1; Cit = NC(=O)NCCC[C@H](N)C(=O)O; Orn = NCCC[C@H](N)C(=O)O; Dab = NCC[C@H](N)C(=O)O; Inp′ = not defined here; Trx′ = not defined here; AOC = not defined here; Dap = NC[C@H](N)C(=O)O; PEG = not defined here; AEEA = NCCOCCOCC(=O)O; Sar = CNCC(=O)O

Molecular target: T1, human amylin receptor (AMY3) on CHO-K1/Ga15/AMY3 cells (human, UniProt P30988 25-474; O60896 24-148)
T1 sequence (looked up) 1: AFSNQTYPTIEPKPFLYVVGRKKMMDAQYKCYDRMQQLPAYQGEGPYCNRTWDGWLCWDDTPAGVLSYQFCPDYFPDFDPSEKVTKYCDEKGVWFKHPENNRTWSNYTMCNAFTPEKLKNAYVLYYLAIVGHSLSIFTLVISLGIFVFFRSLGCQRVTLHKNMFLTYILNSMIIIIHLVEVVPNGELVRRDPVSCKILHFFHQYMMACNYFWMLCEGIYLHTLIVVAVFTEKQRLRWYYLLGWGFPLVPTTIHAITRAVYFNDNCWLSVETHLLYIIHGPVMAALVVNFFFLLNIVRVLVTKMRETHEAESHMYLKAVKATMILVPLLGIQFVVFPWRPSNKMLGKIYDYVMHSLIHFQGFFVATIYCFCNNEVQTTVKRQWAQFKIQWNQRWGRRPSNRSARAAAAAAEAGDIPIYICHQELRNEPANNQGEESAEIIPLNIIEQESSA
T1 sequence (looked up) 2: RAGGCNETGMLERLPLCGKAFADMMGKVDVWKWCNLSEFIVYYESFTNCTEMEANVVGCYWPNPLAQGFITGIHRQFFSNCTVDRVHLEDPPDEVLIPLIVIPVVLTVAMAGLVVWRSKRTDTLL
Assay: cell-based or functional assay

{C20 diacid-γGlu}-KCNTATCATQRLADFLRHSSNNL[Cit]PILPPTNVGSNTP-NH2 (disulfide 2-7 (inferred)) [PD171]
EC50, CRE-luciferase assay: 0.053 nM

{C20 diacid-PEG-PEG-PEG-PEG-PEG-PEG-PEG-PEG-γGlu}-KCNTATCATQRLADFLRHSSNNLKPILPPTNVGSNT[Hyp]-NH2 (disulfide 2-7 (inferred); reading uncertain) [PD186]
EC50, CRE-luciferase assay: 0.052 nM

{C20 diacid-γGlu}-KCNTATCATQRLADFLRHSSNNLSPILPPTNVGSNTP-NH2 (disulfide 2-7 (inferred)) [PD166]
EC50, CRE-luciferase assay: 0.054 nM

{C20 diacid-γGlu}-KCNTATCATQRLADFLRHSSNNL[aK]PILPPTNVGSNTP-NH2 (disulfide 2-7 (inferred)) [PD167]
EC50, CRE-luciferase assay: 0.05 nM

{C20 diacid-AEEA-AEEA-γGlu}-KCNTATCATQRLADFLRHSSNNLKPILPPTNVGSNT[Hyp]-NH2 (disulfide 2-7 (inferred)) [PD176]
EC50, CRE-luciferase assay: 0.029 nM

{C20 diacid-Inp′-AEEA-AEEA}-KCNTATCATQRLADFLRHSSNNLKPILPPTNVGSNT[Hyp]-NH2 (disulfide 2-7 (inferred)) [PD179]
EC50, CRE-luciferase assay: 0.017 nM

B1: PD190 (peptide)
peptide: {C20 diacid-AEEA-AEEA-Trx′}-KCNTATCATQRLADFLRHSSNNLKPILPPTNVGSNTP-NH2
modifications: disulfide 2-7 (inferred); reading uncertain; also: printed as N-terminal: Trx + 2*AEEA + C20 diacid; C-terminal NH2
EC50, CRE-luciferase assay: 0.017 nM

{C20 diacid-AEEA-AEEA}-DKCNTATCATQRLADFLRHSSNNLKPILPPTNVGSNT[Hyp]-NH2 (disulfide 3-8 (inferred)) [PD182]
EC50, CRE-luciferase assay: 0.034 nM

B2: PD189 (peptide)
peptide: {C20 diacid-Trx′-AEEA-AEEA}-KCNTATCATQRLADFLRHSSNNLKPILPPTNVGSNTP-NH2
modifications: disulfide 2-7 (inferred); reading uncertain; also: printed as N-terminal: 2*AEEA + Trx + C20 diacid; C-terminal NH2
EC50, CRE-luciferase assay: 0.029 nM

{C20 diacid-Inp′-AEEA-AEEA}-KCNTATCATQRLADFLRHSSNNLKPILPPTNVGSNTP-NH2 (disulfide 2-7 (inferred)) [PD191]
EC50, CRE-luciferase assay: 0.061 nM

{C20 diacid-γGlu}-KCNTATCATQRLADFLRHSSNNLDPILPPTNVGSNTP-NH2 (disulfide 2-7 (inferred)) [PD164]
EC50, CRE-luciferase assay: 0.111 nM

{C20 diacid-γGlu}-KCNTATCATQRLADFLRHSSNNLHPILPPTNVGSNTP-NH2 (disulfide 2-7 (inferred)) [PD162]
EC50, CRE-luciferase assay: 0.035 nM

{C20 diacid-γGlu}-KCNTATCATQRLADFLRHSSNNL[Trx′]PILPPTNVGSNTP-NH2 (disulfide 2-7 (inferred); reading uncertain) [PD173]
EC50, CRE-luciferase assay: 0.064 nM

{C20 diacid-βAsp-AEEA-AEEA}-KCNTATCATQRLADFLRHSSNNLKPILPPTNVGSNT[Hyp]-NH2 (disulfide 2-7 (inferred)) [PD183]
EC50, CRE-luciferase assay: 0.04 nM

RCNTATCATQRLADFLRHSSNNLK([γGlu-C20 diacid])PILPPTNVGSNTP-NH2 (disulfide 2-7 (inferred)) [PD042]
EC50, CRE-luciferase assay: 0.111 nM

{C20 diacid-AEEA-AEEA-Inp′}-KCNTATCATQRLADFLRHSSNNLKPILPPTNVGSNT[Hyp]-NH2 (disulfide 2-7 (inferred)) [PD180]
EC50, CRE-luciferase assay: 0.016 nM

{C20 diacid-γGlu}-KCNTATCATQRLADFLRHSSNNLPPILPPTNVGSNTP-NH2 (disulfide 2-7 (inferred)) [PD163]
EC50, CRE-luciferase assay: 0.084 nM

{C20 diacid-γGlu}-KCNTATCATQRLADFLRHSSNNLNPILPPTNVGSNTP-NH2 (disulfide 2-7 (inferred)) [PD165]
EC50, CRE-luciferase assay: 0.05 nM

{C20 diacid-γGlu}-KCNTATCATQRLADFLRHSSNNL[Sar]PILPPTNVGSNTP-NH2 (disulfide 2-7 (inferred)) [PD172]
EC50, CRE-luciferase assay: 0.075 nM

RCNTATCATQRLAEFLRHSSK([AEEA-AEEA-γGlu-C20 diacid])NLGPILPPTNVGSNTP-NH2 (disulfide 2-7 (inferred)) [PD001]
EC50, CRE-luciferase assay: 0.042 nM

{C20 diacid-AEEA-AEEA-βAsp}-KCNTATCATQRLADFLRHSSNNLKPILPPTNVGSNT[Hyp]-NH2 (disulfide 2-7 (inferred)) [PD184]
EC50, CRE-luciferase assay: 0.037 nM

{C20 diacid}-D[AEEA][AEEA]KCNTATCATQRLADFLRHSSNNLKPILPPTNVGSNT[Hyp]-NH2 (disulfide 5-10 (inferred)) [PD181]
EC50, CRE-luciferase assay: 0.022 nM

{C20 diacid-γGlu}-KCNTATCATQRLADFLRHSSNNL[Dab]PILPPTNVGSNTP-NH2 (disulfide 2-7 (inferred)) [PD169]
EC50, CRE-luciferase assay: 0.039 nM

{C20 diacid-Trx′-AEEA-AEEA}-KCNTATCATQRLADFLRHSSNNLKPILPPTNVGSNT[Hyp]-NH2 (disulfide 2-7 (inferred); reading uncertain) [PD177]
EC50, CRE-luciferase assay: 0.024 nM

{C20 diacid-γGlu}-KCNTATCATQRLADFLRHSSNNL[Orn]PILPPTNVGSNTP-NH2 (disulfide 2-7 (inferred)) [PD170]
EC50, CRE-luciferase assay: 0.041 nM

B3: PD187 (peptide)
peptide: {C20 diacid-AEEA-AEEA}-KCNTATCATQRLADFLRHSSNNLKPILPPTNVGSNTX-NH2
modifications: disulfide 2-7 (inferred); not fully specified (residue 37); printed as KCNTATCATQRLADFLRHSSNNLKPILPPTNVGSNT-trans-Hyp-NH2
EC50, CRE-luciferase assay: 0.016 nM

{C20 diacid-AEEA-AEEA-Trx′}-KCNTATCATQRLADFLRHSSNNLKPILPPTNVGSNT[Hyp]-NH2 (disulfide 2-7 (inferred); reading uncertain) [PD178]
EC50, CRE-luciferase assay: 0.017 nM

{C20 diacid-AEEA-AEEA-γGlu}-KCNTATCATQRLADFLRHSSNNLKPILPPTNVGSNTP-NH2 (disulfide 2-7 (inferred)) [PD188]
EC50, CRE-luciferase assay: 0.025 nM

RCNTATCATQRLAEFLRHSSNNLK([γGlu-C20 diacid])PILPPTNVGSGT[Hyp]-NH2 (disulfide 2-7 (inferred)) [PD041]
EC50, CRE-luciferase assay: 0.259 nM

{C20 diacid-γGlu}-KCNTATCATQRLADFLRHSSNNLKPILPPTNVGSNTP-NH2 (disulfide 2-7 (inferred)) [PD160]
EC50, CRE-luciferase assay: 0.035 nM

{C20 diacid-γGlu}-KCNTATCATQRLADFLRHSSNNL[Dap]PILPPTNVGSNTP-NH2 (disulfide 2-7 (inferred)) [PD168]
EC50, CRE-luciferase assay: 0.041 nM

{C20 diacid-γGlu}-KCNTATCATQRLADFLRHSSNNL[AOC]PILPPTNVGSNTP-NH2 (disulfide 2-7 (inferred); reading uncertain) [PD174]
EC50, CRE-luciferase assay: 0.046 nM

{C20 diacid-γGlu}-KCNTATCATQRLADFLRHSSNNLRPILPPTNVGSNTP-NH2 (disulfide 2-7 (inferred)) [PD161]
EC50, CRE-luciferase assay: 0.026 nM
